We go through 6 molecules from patent US20120021995A1 (published 2012).

The term koff denotes the first-order rate constant of dissociation. What is called kon is a measure of how fast the partners come together.

Test [1] addresses T1, DR4 (TRAIL-R1) on cancer cells (human, UniProt O00220 24-468).
T1 sequence: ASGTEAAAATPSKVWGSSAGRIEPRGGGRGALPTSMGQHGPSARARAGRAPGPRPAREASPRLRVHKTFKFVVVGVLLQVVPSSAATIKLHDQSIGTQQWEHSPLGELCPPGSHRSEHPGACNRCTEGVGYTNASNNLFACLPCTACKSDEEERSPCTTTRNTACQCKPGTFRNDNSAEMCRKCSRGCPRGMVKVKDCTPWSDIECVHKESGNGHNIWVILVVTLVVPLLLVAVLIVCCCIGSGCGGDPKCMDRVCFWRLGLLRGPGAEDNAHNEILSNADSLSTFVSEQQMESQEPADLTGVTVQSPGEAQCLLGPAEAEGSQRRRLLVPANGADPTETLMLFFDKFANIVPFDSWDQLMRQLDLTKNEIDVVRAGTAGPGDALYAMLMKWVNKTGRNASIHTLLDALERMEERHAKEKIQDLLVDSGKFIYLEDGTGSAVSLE
Put plainly: cell-based or functional assay.

Test [2] addresses T1, DR4 (TRAIL-R1) on cancer cells. Put plainly: cell-based or functional assay. This is another data set of the same source.
The target of test [3] is T2, recombinant human TRAIL R1 (DR4)/Fc chimera (human, UniProt O00220 24-239).
T2 construct: bought (R&D Systems); not shown: Fc of the bought chimera (R&D Systems)
T2 sequence: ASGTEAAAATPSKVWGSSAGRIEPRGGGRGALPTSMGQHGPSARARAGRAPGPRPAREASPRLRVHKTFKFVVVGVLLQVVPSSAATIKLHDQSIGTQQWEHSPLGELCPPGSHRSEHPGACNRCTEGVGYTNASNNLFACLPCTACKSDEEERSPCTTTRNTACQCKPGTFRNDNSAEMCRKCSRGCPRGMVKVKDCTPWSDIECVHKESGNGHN
Description: SPR (Biacore), ATRIMER. The procedure: (§1) Immobilization of an anti-human IgG Fc antibody (Biacore) to the CM5 chip (Biacore) was performed using standard amine coupling chemistry and this surface was used to capture recombinant human DR4 or DR5 receptor Fc fusion protein (R&D Systems). ATRIMER™ dilutions (1-500 nM) were injected over the DR4 and DR5 receptor surface at 30 μl/min and kinetic constants were derived from the sensorgram data using the Biaevaluation software (version 3.1, Biacore). Data collection was 3 minutes for the association and 5 minutes for dissociation. The anti-human IgG surface was regenerated with a 30 s pulse of 3 M magnesium chloride. All sensorgrams were double-referenced against an activated and blocked flow-cell as well as buffer injections.
Clones were then sub-cloned into pANA19 for expression and purification as described above. Cell killing activity was measured as described above, and binding affinity was measured by Biacore.
For orientation: SPR reads the build-up and loss of mass on a sensor chip optically.

The target in test [4] is T1, DR4 (TRAIL-R1) on cancer cells. Description: cell-based or functional assay. The source holds these as a separate data set.
Test [5] has the same target. Put plainly: cell-based or functional assay. This is another data set of the same source.
Test [6] addresses DR5 (TRAIL-R2) on cancer cells (human, UniProt O14763 56-440). Description: cell-based or functional assay.
The target in test [7] is T3, recombinant human TRAIL R2 (DR5)/Fc chimera (human, UniProt O14763 54-182).
T3 construct: bought (R&D Systems); not shown: Fc of the bought chimera (R&D Systems)
Put plainly: SPR (Biacore), DR5-Fc captured by anti-Fc, ATRIMER analyte; apparent. The procedure: as §1

In test [1], “rhTRAIL-His (from UniProt P50591 95-281) (ligand)” displayed an EC50 Colo205 (cell killing) of 0.06 nM and an EC50 ST486 (cell killing) of 0.06 nM.

B1: 29p61P1E11 (designed binder)
chain: EPPTQKPKKIVNAKKDVVNTKMFEELKSRLDTLAQEVALLKEQQALQTVCLKGTKVHMKCFLAFTQTKTFHEASEDCISRGGTLSTPQTGSENDALYEYLRQSVGNEAEIWLGLNGWLEGVGWVDMTGARIAYKNWETEITAQPDGGWPFSNENCAVLSGAANGKWFDKRCRDQLPYICQFGIV
notes: ATRIMER; also called 029-61.1E11
Consider B1, for which the “ED50 ST486 (cell killing)” value in test [2] came to 217 nM. In test [3], the Kd stood at 3.2 nM, the koff came to 0.000302 s⁻¹ and the kon amounted to 93800 M⁻¹ s⁻¹. Besides, the “ED50 (nM) ST486 (cell killing)” value in test [4] worked out at 217 nM.

B2: 71p88P1G4 (designed binder)
chain: EPPTQKPKKIVNAKKDVVNTKMFEELKSRLDTLAQEVALLKEQQALQTVCLKGTKVHMKCFLAFTQTKTFHEASEDCISRGGTLSTPQTGSENDALYEYLRQSVGNEAEIWLGLNGYMTGVGWVDMTGARIAYKNWETEITAQPDGGRSWKWENCAVLSGAANGKWFDKRCRDQLPYICQFGIV
As to B2, in test [5], the “Colo205 % killing (% of TRAIL activity)” value was 24%, the “H2122 % killing (% of TRAIL activity)” value is 5% and the “ST486 % killing (% of TRAIL activity)” value turned out to be 75%. In addition, in test [2], the “ED50 ST486 (cell killing)” value came out at 75 nM.

B3: 029-15.A3C (designed binder)
chain: EPPTQKPKKIVNAKKDVVNTKMFEELKSRLDTLAQEVALLKEQQALQTVCLKGTKVHMKCFLAFTQTKTFHEASEDCISRGGTLSTPQTGSENDALYEYLRQSVGNEAEIWLGLNRATLRPRWVDMTGARIAYKNWETEITAQPDGGKNCAVLSGAANGKWFDKRCRDQLPYICQFGIV
notes: ATRIMER; also called 4a8c
Turning to B3, in test [6], the “% cell death of H2122 and A2780 cells, 20 µg/mL, 20 h” value (“% cell death of H2122 and A2780 cells” for short) is above 50%. Moreover, in test [7], the Ka is 1.74e+08 M⁻¹, the Kd worked out at 5.74 nM, the koff amounted to 0.000362 s⁻¹ and the kon stood at 63000 M⁻¹ s⁻¹.

B4: 029-15.A8G (designed binder)
chain: EPPTQKPKKIVNAKKDVVNTKMFEELKSRLDTLAQEVALLKEQQALQTVCLKGTKVHMKCFLAFTQTKTFHEASEDCISRGGTLSTPQTGSENDALYEYLRQSVGNEAEIWLGLNRAWLRPRWVDMTGARIAYKNWETEITAQPDGGTLVSGENCAVLSGAANGKWFDKRCRDQLPYICQFGIV
notes: ATRIMER; also called 1a7b
For B4, the “% cell death of H2122 and A2780 cells” value in test [6] is above 50%. For the same molecule, in test [7], the Ka was 6.43e+07 M⁻¹, the Kd stood at 15.6 nM, the dissociation rate constant (koff) was found to be 0.000629 s⁻¹ and the kon was found to be 40500 M⁻¹ s⁻¹.

B5: 029-15.A1H (designed binder)
chain: EPPTQKPKKIVNAKKDVVNTKMFEELKSRLDTLAQEVALLKEQQALQTVCLKGTKVHMKCFLAFTQTKTFHEASEDCISRGGTLSTPQTGSENDALYEYLRQSVGNEAEIWLGLNRAVLRPRWVDMTGARIAYKNWETEITAQPDGGWVLGGKNCAVLSGAANGKWFDKRCRDQLPYICQFGIV
notes: ATRIMER; also called 8b6b
Consider B5, for which, in test [6], the “% cell death of H2122 and A2780 cells” value is above 50%. Also, in test [7], the Ka is 2.56e+07 M⁻¹, the Kd came to 39.1 nM, the koff was found to be 0.000506 s⁻¹ and the association rate constant (kon) came to 12900 M⁻¹ s⁻¹.
